Assay [1] addresses integrin αIIbβ3 (human (endogenous in platelets)) (UniProt P08514). Put plainly: flow cytometry on cells; FITC-triflavin (2 µg/ml) added to resting washed human platelets treated with 0.3 µM TQ-6. (In general: Flow cytometry measures light scatter and fluorescence of single cells or particles in a stream.)
Assay [2] has the same target. Put plainly: flow cytometry on cells; FITC-triflavin (2 µg/ml) added to resting washed human platelets treated with 0.5 µM TQ-6.
The target is the same in assay [3]. The assay is described as follows: flow cytometry on cells; FITC-triflavin (2 µg/ml) added to resting washed human platelets (3.6 × 10^8 cells/ml) in Tyrode's solution, 3 min; no additive (positive control).

Sequence of UniProt P08514 (P08514 32-1039, chain 1 of 2): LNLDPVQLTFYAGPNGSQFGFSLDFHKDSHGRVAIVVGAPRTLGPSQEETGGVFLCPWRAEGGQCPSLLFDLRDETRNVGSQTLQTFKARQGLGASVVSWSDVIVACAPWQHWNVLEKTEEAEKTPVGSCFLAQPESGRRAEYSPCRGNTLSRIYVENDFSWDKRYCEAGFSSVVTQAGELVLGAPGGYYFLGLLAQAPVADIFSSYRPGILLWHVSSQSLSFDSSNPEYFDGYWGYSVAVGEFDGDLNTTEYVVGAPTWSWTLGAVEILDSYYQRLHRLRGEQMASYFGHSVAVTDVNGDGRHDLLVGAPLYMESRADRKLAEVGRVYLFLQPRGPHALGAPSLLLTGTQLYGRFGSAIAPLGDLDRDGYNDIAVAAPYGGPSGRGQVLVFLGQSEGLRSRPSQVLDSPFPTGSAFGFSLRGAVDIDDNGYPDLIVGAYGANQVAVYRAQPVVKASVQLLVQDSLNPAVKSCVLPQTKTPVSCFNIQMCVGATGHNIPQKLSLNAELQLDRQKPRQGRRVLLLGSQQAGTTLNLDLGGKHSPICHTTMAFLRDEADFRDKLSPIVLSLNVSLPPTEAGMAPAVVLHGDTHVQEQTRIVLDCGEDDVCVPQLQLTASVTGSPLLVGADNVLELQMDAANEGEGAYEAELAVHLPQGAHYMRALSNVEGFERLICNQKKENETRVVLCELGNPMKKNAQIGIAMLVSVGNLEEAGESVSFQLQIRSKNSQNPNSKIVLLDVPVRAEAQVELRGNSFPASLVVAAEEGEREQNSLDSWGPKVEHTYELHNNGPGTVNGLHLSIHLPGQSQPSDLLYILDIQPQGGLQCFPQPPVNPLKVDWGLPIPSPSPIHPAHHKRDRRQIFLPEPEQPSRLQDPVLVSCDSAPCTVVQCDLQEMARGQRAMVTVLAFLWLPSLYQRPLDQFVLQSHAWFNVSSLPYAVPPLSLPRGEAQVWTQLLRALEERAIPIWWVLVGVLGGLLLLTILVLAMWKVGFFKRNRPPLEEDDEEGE
Sequence of UniProt P08514 (P05106 27-788, chain 2 of 2, further chain): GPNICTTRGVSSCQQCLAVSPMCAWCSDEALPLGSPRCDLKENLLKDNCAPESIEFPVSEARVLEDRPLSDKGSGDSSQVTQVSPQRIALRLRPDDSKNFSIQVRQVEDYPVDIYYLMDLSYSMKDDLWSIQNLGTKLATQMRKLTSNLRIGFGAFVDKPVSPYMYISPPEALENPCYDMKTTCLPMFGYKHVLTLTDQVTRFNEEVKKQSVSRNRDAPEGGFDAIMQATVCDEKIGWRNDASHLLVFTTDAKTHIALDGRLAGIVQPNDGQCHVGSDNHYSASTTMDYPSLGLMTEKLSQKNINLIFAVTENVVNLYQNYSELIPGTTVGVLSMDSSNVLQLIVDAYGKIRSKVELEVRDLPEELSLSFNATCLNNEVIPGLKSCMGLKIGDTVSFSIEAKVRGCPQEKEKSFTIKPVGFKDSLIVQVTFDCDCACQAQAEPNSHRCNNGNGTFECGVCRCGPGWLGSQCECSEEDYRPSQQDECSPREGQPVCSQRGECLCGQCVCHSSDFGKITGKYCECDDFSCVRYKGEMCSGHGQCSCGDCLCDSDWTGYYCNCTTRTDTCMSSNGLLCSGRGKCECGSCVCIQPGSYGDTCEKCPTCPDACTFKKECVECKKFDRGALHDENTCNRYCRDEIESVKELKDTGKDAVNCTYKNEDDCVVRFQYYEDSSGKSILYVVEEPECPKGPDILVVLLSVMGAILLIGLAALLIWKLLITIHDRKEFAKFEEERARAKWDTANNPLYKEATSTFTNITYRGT

Take triflavin (natural protein): the values for the relative fluorescence intensity in assay [1], in assay [2] and in assay [3] were 1260, 1220 and 1150, respectively.
